This note sets out measurements from the supplement of paper PMC9170038.

The data set has as its system MS2 coat protein. Put plainly: apparent KD of MS2 coat protein; higher = weaker reporter binding. To be noted: Eterna round: R107. On the procedure: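 RNA-MaP round R107: designed RNA switches with theophylline, tryptophan, arginine or FMN aptamers are transcribed on-chip within common flanks. They are titrated with SNAP-549-labelled MS2 coat protein in RNA-MaP buffer (100 mM Tris pH 7.5, 80 mM KCl, 4 mM MgCl2), without ligand or with the indicated ligand. Median apparent KD per design.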

Where [1] appears, read: input ligand: theophylline 20 uM.
Setting [2] is: input ligand: theophylline 2 mM.
[3] abbreviates: input ligand: tryptophan 2.4 mM.

Take “ACAUGAGUGGAUAAUAAAUAAGAAGGCGAAGGAGCGUGAAGAAUCACAGGUAGGUCGCGCAAAAUACAUGAGGAUCACCCAUGUU [JR_Nu_ExcArginiA_Sub031]”: the “apparent KD of MS2 coat protein” value is 22.5 nM (input ligand: arginine 13.2 mM); 27.6 nM (input ligand: none); 35.3 nM under setting [1]; 29.8 nM under setting [2]; 25.9 nM under setting [3].

As to “ACAUGUUGGUGGUAUCUACGAAGGCGGAAACGAGGACCGGUACGGCCGCCACUCGGCGACAUGAGGAUCACCCAUGUGGUUAAGA [Exclusion - Tryptophan A (Freestyle 6)]”, the “apparent KD of MS2 coat protein” value (input ligand: arginine 13.2 mM) was found to be 21.5 nM, the “apparent KD of MS2 coat protein” value under setting [1] stood at 118 nM and the “apparent KD of MS2 coat protein” value under setting [2] turned out to be 131 nM.

With “ACAUUGCGCUCGGCCGCCACUGCCUUAUGAUUAUAAGGAUUAAUGAACAUGAGGAUCACCCAUGUCAGGACCGGGAGCGAACCAU [SSTryp B #6]”, the “apparent KD of MS2 coat protein” value worked out at 11.4 nM (input ligand: arginine 13.2 mM), 16 nM under setting [1] and 14.1 nM under setting [2].

On to “ACAUUUAACUGAAGGAGCGUGAUAUUUACAUGAGGAUCACCCAUGUCUAUCAUGAGAUAUUCACAGGUAGGUCGCAGACUAAUGA [JR_ExcArginiB_Sub005]”, for which the “apparent KD of MS2 coat protein” value reads like this: (input ligand: arginine 13.2 mM) 38.9 nM; (input ligand: none) 26.7 nM; under setting [1], 40.9 nM; under setting [2], 46.9 nM; under setting [3], 29.4 nM.

On to “ACCAUGUAAUCAGAUACCAGACAUCUUUUAAAUCAUAUUACAUGAGGAUCACCCAUGUUGGUCCCUUGGCAGCUGAAAUAUUUCA [JR_Nu_SSTheophyB_Sub025]”, for which the “apparent KD of MS2 coat protein” value worked out at 144 nM (input ligand: arginine 13.2 mM), 351 nM under setting [1] and 529 nM under setting [3].

Take “ACCGAAAGCUCACAUGAGGAUCACCCAUGUCGAGGACCGGUACGGCCGCCACUCGGCAAAUAUAAGGGUGGACGCGUCUCUGCGU [Soramasoso]”: the “apparent KD of MS2 coat protein” value reads like this: (input ligand: arginine 13.2 mM) 35.4 nM; under setting [1], 58.8 nM; under setting [2], 62.1 nM.

In the case of “ACCGAGGCAAUGGAUACCAGUGCGCCACAAUCGUGCUUCAACAUGAGGAUCACCCAUGUGCACCCUUGGCAGCCAACGGGCUCAU [theeternabot_exclusion_MS2_Theo_B_19]”, the “apparent KD of MS2 coat protein” value runs as follows: (input ligand: arginine 13.2 mM) 15 nM; under setting [1], 25.3 nM; under setting [3], 19.9 nM.

In the case of “ACCGCAUCCGUAUAGGAUGCGGCCCAUGAAGGAGCGUGGGAAACCACAGGUAGGUCGCAUGGAUUACAUGAGGAUCACCCAUGUG [Skyfall]”, the “apparent KD of MS2 coat protein” value stood at 104 nM (input ligand: arginine 13.2 mM); 400 nM (input ligand: none); 378 nM under setting [1]; 706 nM under setting [2]; 408 nM under setting [3].

Take “ACCUCACUCUCUGAUACCAGCUAAUAACAUGAGGAUCACCCAUGUCAGACUUGUAUUGAUAGCCCUUGGCAGCAGAGGUAACUGC [Theo B Ex t2]”: the “apparent KD of MS2 coat protein” value by setting is: (input ligand: arginine 13.2 mM) 9.42 nM; under setting [1], 11.9 nM; under setting [3], 10.6 nM.

As to “ACCUCAUGUAGAAGGAGCGUCAGAAGCUACAGACAUGAGGAUCACCCAUGUUAGUUGAUCUGACAGGUAGGUCGCUACAGCAGGA [#23 Same State - Arginine B]”, the “apparent KD of MS2 coat protein” value runs as follows: (input ligand: arginine 13.2 mM) 24.1 nM; (input ligand: none) 32.3 nM; under setting [1], 43.9 nM; under setting [2], 35.6 nM; under setting [3], 31.8 nM.

For “ACCUGUACGAAAAGUGCAGGACACGGAAUACGAGGACCGGUACGGCCGCCACUCGGAAAACCUGAGGAUCACCCUGGUAACCGUG [TrypAS 11 #AlternativeMS2 #Zipper #StaticStem]”, the “apparent KD of MS2 coat protein” value amounted to 21.6 nM (input ligand: arginine 13.2 mM); 16.3 nM (input ligand: none); 22.3 nM under setting [1]; 25 nM under setting [2]; 22.1 nM under setting [3].

Consider “ACCUGUACGAAAAGUGCAGGACAUGGAAAUCGAGGACCGGUACGGCCGCCACUCGUUGAAAACAAGUGGAUCACCCUUGUCCAUG [TrypAS 3 #AlternativeMS2 #Zipper #StaticStem]”, for which the “apparent KD of MS2 coat protein” value (input ligand: arginine 13.2 mM) came to 35.3 nM; the “apparent KD of MS2 coat protein” value (input ligand: none) stood at 417 nM; the “apparent KD of MS2 coat protein” value under setting [1] amounted to 764 nM; the “apparent KD of MS2 coat protein” value under setting [2] worked out at 872 nM; the “apparent KD of MS2 coat protein” value under setting [3] is 1070 nM.

Turning to “ACGACGCAUAGUGAUACCAGUAGAACAUGAGGAUCACCCAUGUCAGAUAUGUUCUAAUACUGCCCUUGGCAGCACUAUGCGUCAG [SSTheo B #4]”, the “apparent KD of MS2 coat protein” value came to 144 nM (input ligand: arginine 13.2 mM), 344 nM under setting [1] and 299 nM under setting [3].

Consider “ACGAUAGGACAUGAGGAUCACCCAUGUGAUACCAGCCUGGAAACAGGCCCUUGGCAGCACAAAUACUCCAGAAACCUAUCGAAAA [MAT - Exclusion Theophlline A - Mod of Eli - D5]”, for which the “apparent KD of MS2 coat protein” value by setting is: (input ligand: arginine 13.2 mM) 103 nM; under setting [1], 263 nM; under setting [3], 337 nM.

Take “ACGAUAGGACCUGAGGAUCACCCUGGUGAUACCAGCCUGGAAACAGGCCCUUGGCAGCACAAAUACUCCAAUAACCUAUCGAAUA [TheoAX 13 #MicroSwitchBubble #AlternativeMS2]”: the “apparent KD of MS2 coat protein” value runs as follows: (input ligand: arginine 13.2 mM) 245 nM; (input ligand: none) 611 nM; under setting [1], 698 nM; under setting [2], 1100 nM; under setting [3], 1070 nM.

Consider “ACGUAAAGCAGAAGGAGCGUCUUCAAUUUACAUGAGGAUCACCCAUGUUUUGUGAUCAUAUGACAGGUAGGUCGCUGAAGUACGA [JR_SSArginiB_Sub002]”, for which the “apparent KD of MS2 coat protein” value was determined as 85.9 nM (input ligand: arginine 13.2 mM), 152 nM under setting [1], 141 nM under setting [2] and 123 nM under setting [3].

For the sequence “ACGUAAUGCAGAAGGAGCGUCAACCUCUUACAUGAGGAUCACCCAUGUUACAUGGUUGUAUGACAGGUAGGUCGCUGAAGUACGA [JR_ExcArginiB_Sub001]”, the “apparent KD of MS2 coat protein” value amounted to 31.9 nM (input ligand: arginine 13.2 mM); 34.7 nM (input ligand: none); 50.5 nM under setting [1]; 50.4 nM under setting [2]; 36.6 nM under setting [3].
